Results published in a protein production outcome set (Wang et al. 2014).

Assay: label from the status in PepcDB records
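Further: failed if final PepcDB status was selected cloned or expressed and not failed if soluble or beyond.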

Sequence	protein production
DETQVLATVTQELANLFQLESCYIELYNTDCTAVSVVCEYAANQPTYQGLTRQIADFSEIYQPLLQKQHFQTIEIVPGWHPQLLVITQLACPIFDAQGMLGNLWLIRPIQQMLSQSEICLVQTLANLCAIAIRQAKLDATNQARLKKLEQRESLTNKFLRKLSQELRTPITSISLAAQTLETVLSPTI	failed
DGSFRRWSLRQVPEVQGAFMAMDVNSGRVLAMQGGFSYQYSVFNRATQATRQPGSSFKPFVYAAALDSGFTPATIVIDAPIEVQTAQGLWTPKNASGKYYGPTPLRTGVEQSRNLMTVRIAQEIGMDTVASYAERFGVYDRMGQFLANALGAEETTLFKMVAAYAMFANGGERVQPTLVDRVQDRFGRTIYRHDQRICDDCAQPLLPEGRAPHITSKRERVMDAITAYQLTSMMEGVIKRGTGRGINLPVPVAGKTGTTNDAKDVWFIGYTSNIVAGCYIGYDQPRSMGSASGGGFCGPVFQSFMTKAVKKYGGSEF	failed
DHLILLPGWGLGSAPLEPLRDALHEREPHLNVLIEPLPSLDDAADWLDELDDNLPRDSWLAGWSLGGMLAGELAARRGDDCRGLLTLASNPCFRVREDWPNAMPAETFEDFFEAFLLEPHLTRKRFTLLVSQGARDPRTLARQLQVALPQLEREALVAGLQLLGQLDTRAALENFRGPQLHLFAEADALVPLAAAEALLEWLPDVEVSTLAASHGLPLECPDEVAGAILRFLRE	failed
DKGTALLVNRSLRFGERTAEELMTPRVKIVTLSTTDTVADLIDTASRTGFSRFPVVESDLDDAVGVVHIKHAFAVPAHRRRTARLNSLAQKVPVVPSSLDGDALMERIRSDGMQVAFVVDEYGGTAGMVTMEDLIEEIVGDVR	failed
DLAPSRVESLTLIMTSSGAQGLPMPNAALLQLLARRGAPDREVALEQQADLLAALGSPQVKDDREQLLHQAAVSYDRAFNPEGVKRQIMAILAEPSRVELLNRLRLPVLVVHGTADPLLPVMHGVHVAAHIQGSQLRLIPGLAHRFQEAFKAPLLGAVLPYLKA	failed
DMAFQLRTERLDLNMWEESDAVWLRELIGERGVEMPTVESVRNDLIEKRKIAVENGISLLTIRRRDEGDFIGYCGLIIGRSTLEEPEIAYELFRSAHRMGYATEAASAVLEAAIATGRKRLWSTVGAWNTASFRVLEKIGFKR	failed
DMLLVDEMKRGMAQGNASGKHLIILHTKGSHFNYTQRYPRSFAQWKPECVGVDNKCSKAELINSYDNSVTYVDHFIVSVLDQLRDKKAIVFYAADHGESINEREHLHGTPRKMAPPEQFRVPMMVWMSDKYLENPDHAAAFAHLQQQAAMKVPRRHVELYDTIMGCLGYTSPDGGINENNNWCRWKK	failed
DNHGVVHCVESAPAAVSAGKRALSQLVEDQKIVFHTETVERAMNQLPAPTLVVLDPPRVGAGAETVRAIAQSGPQAAIHIGCDPATFARDIAEWSRNGFILEKLRVFDAFPGTHHCETIGLLTKKN	failed
DNMEAVKTFNSELYSLNDYKPPISKAKMTQITKAAIKAIKFYKHVVQSVEKFIQKCKPEYKVPGLYVIDSIVRQSRHQFGQEKDVFAPRFSNNIISTFQNLYRCPGDDKSKIVRVLNLWQKNNVFKSEIIQPLLDMAAG	not failed
DPLDNLVAPTAAAAAAAAGKKKQPSAAAAAATKTTANKVANSNNKANAGSNIGGPNAKKPNQAEKENKPNNALNKTDGKKFTPSADNKQQQFNNNASSNYK	failed
DPQFHREGDDIVVEREIKFTDAALGASLDVPTLEGTKRVKVPAGIQSGTKIRLKGLGFPHMGKTAKGDLYVHINVSVPRSLSADQKAILEKLREAGL	failed
DPSPQTIYKWIKDNISPKLHVDKGFVNILMTSFLQYISSEVNPPSDETDSSSAPS	failed
DQDTLVQRAEHIPAGKRTPMCAHCNQVIRGPFLVALGKSWHPEEFNCAHCKNTMAYIGFVEEKGALYCELCYEKFFA	not failed
DQHRPATLEALLAGVSLLLPMLDAIPNAAIFIKDSAARYALANNTLVQRCGLKRLQPLLGKTSAEVFPAQFGPGYTEQDRRVLKEGLVLEDQLELHLYGSREPGWCLTHKRPLYNPAGEIIGLVGISVDLQSAADSHP	failed
DSFKTKSGKELTITFIKHGSLMLTYDNHSIQVDPVSEYADYTTFPKADIILITHEHGDHLDPKAIQAVEKSDTEIIANENSQKKLGKGKVLKNGDTDTSISYMKIEAVPAYNTTPGRDKYHPRHRDNGYILTFDGLRVYIAGDTEDIPEMKDLKDIDIAFLPVNQPYTMTVSQAAKAARMFSPKILYPYHYGDTKIGELKDALKDSGIDVRIRELQ	not failed
